Assay results from paper PMC4770247.
Residue numbers refer to the chain shown, from its start.

Experiments:
NRF2;MAFG [1] = target: T1, NRF2;MAFG (human?;human?, UniProt Q16236;O15525 1-605;1-162, |); assay: protein binding microarray, anti-NRF2 detection
NRF2;MAFG [2] = target: T1, NRF2;MAFG; assay: protein binding microarray, anti-NRF2 detection; remark: listed apart in the source

B1: NQO1.ARE (dsDNA)
DNA 1: CCGCAGTCACAGTGACTCAGCAGAATCTGAGCCACCCAACCGCCCAACTT
DNA 2: AAGTTGGGCGGTTGGGTGGCTCAGATTCTGCTGAGTCACTGTGACTGCGG
modifications: 3' biotin on top strand; nick in top strand between nt 33 and 34
binding signal (NRF2;MAFG [1]): 1 relative to NQO1.ARE

B2: 7A (dsDNA)
DNA 1: B1 DNA 1 with C18A
DNA 2: B1 DNA 2 with G33T
modifications: 3' biotin on top strand; nick in top strand between nt 33 and 34
binding result (NRF2;MAFG [2]): binds
